In experiment [1] the target is hnRNPU (UniProt Q00839). Briefly: anti-Flag co-IP, hnRNPU immunoblot. The following applies: reference: wild type; sites S83,S85. For orientation: A western blot detects proteins with antibodies after separation by electrophoresis.
Experiment [2] addresses hnRNPU (UniProt Q00839). Briefly: Flag-hnRNPU co-IP, HA-FOXN3 immunoblot. The settings on record: reference: WT FOXN3 with HA-p38; sites S83,S85.

Regarding FOXN3 (from UniProt O00409) S83,85A, the “binding against the reference” value in experiment [1] is on record as “stronger”.

“FOXN3 (from UniProt O00409) S83,85A with HA-p38”: in experiment [2], the “binding against the reference” value was “stronger”.

The values are drawn from publication PMC10018351.
